This is an account of results in patent US20200239586A1 (LA TROBE UNIVERSITY, published 2020).

Experiment [1] addresses phage expressed hFn14 mutant L46A (human, UniProt Q9NP84 28-77). In words: phage ELISA (Method 2): antibody coated on the plate, 10-fold dilutions of phage displaying hFn14 L46A; biotin anti-M13 antibody, streptavidin-HRP, TMB, OD 450 nm; x axis = dilution of phage. An excerpt:
ELISAs showing the reactivity of mutant hFn14 phage constructs with the anti-Fn14 monoclonal antibodies CRCBT-06-001, CRCBT-06-002, CRCBT-06-004 compared to ITEM-1 and ITEM-4. Binding was detected using Biotin-conjugated anti-M13-phage monoclonal antibody followed by HRP-conjugated Streptavidin and TMB substrate. Optical density at 450 nm was quantified using a Spectramax spectrophotometer. Error bars for each dilution represent the standard deviation of duplicate assays. FIG. 28A L46A, FIG. 28B D51A and FIG. 28C D62A. In all cases error bars represent the standard deviation. X axis=dilution of phage. Methods according to Epitope mapping using phage expressed Fn14—Method 2.
The wells of Maxisorp immunoplates (Nunc) were coated overnight at 4° C. with the target monoclonal antibodies or recombinant Tweak-Fc at a concentration of 1.5 μg/ml in PBS. mAb 5G8 was used as a negative control for ELISA plates coated with tested antibodies. […] 10-fold serial dilutions of phage were made using PBS solution and phage dilutions were added to the coated, blocked ELISA plates for 1 hour, shaking at room temperature. […]
Method A: HRP-conjugated anti-M13-phage antibody (GE Healthcare) at a 1/5000 dilution in PBS was then added to the wells of the ELISA plates for 1 hour, shaking at room temperature. […] Optical density at 450 nm was quantified using a Spectramax absorbance spectrophotometer.
(An ELISA detects its analyte on a solid surface through an enzyme-linked reagent.)

In experiment [2] the target is phage expressed hFn14 mutant L65A (human, UniProt Q9NP84 28-77). Put plainly: phage ELISA (Method 2): antibody coated on the plate, 10-fold dilutions of phage displaying hFn14 L65A; biotin anti-M13 antibody, streptavidin-HRP, TMB, OD 450 nm; x axis = dilution of phage. The source says: (§1) For mutants P59A and F63A, binding was detected using HRP-conjugated anti-M13-phage polyclonal IgG and TMB substrate. For all other mutants binding was detected using Biotin-conjugated anti-M13-phage monoclonal antibody followed by HRP-conjugated Streptavidin and TMB substrate. Optical density at 450 nm was quantified using a Spectramax spectrophotometer. Error bars for each dilution represent the standard deviation of duplicate assays. FIG. 27A wild type Fn14, FIG. 27B W42A, FIG. 27C S54A, FIG. 27D A57G, FIG. 27E P59A, FIG. 27F S61A, FIG. 27G F63A, FIG. 27H L65A. In all cases error bars represent the standard deviation. X axis=dilution of phage. Methods according to Epitope mapping using phage expressed Fn14—Method 2
(§2) The wells of Maxisorp immunoplates (Nunc) were coated overnight at 4° C. with the target monoclonal antibodies or recombinant Tweak-Fc at a concentration of 1.5 μg/ml in PBS. mAb 5G8 was used as a negative control for ELISA plates coated with tested antibodies. […] 10-fold serial dilutions of phage were made using PBS solution and phage dilutions were added to the coated, blocked ELISA plates for 1 hour, shaking at room temperature. Phage was subsequently removed from the wells and the ELISA plates were washed three times with PBS/0.05% Tween 20. […]

In experiment [3] the target is phage expressed hFn14 mutant F63A (human, UniProt Q9NP84 28-77). Put plainly: phage ELISA (Method 2): antibody coated on the plate, 10-fold dilutions of phage displaying hFn14 F63A; HRP-conjugated anti-M13 phage polyclonal IgG, TMB, OD 450 nm; x axis = dilution of phage.
Source text: as §1, §2

Experiment [4] concerns the target T1, recombinant Fn14-Fc (human, UniProt Q9NP84 28-77).
T1 construct: also called native Fn14; not shown: Fc region (recognised by anti-human Fc)
In words: SPR (ProteOn XPR36), mAb captured on anti-mouse IgG, Fn14-Fc analyte, Langmuir fit. The procedure: The interaction of mouse anti-Fn14 IgG monoclonal antibodies CRCBT-06-001 and CRCBT-06-002 with recombinant Fn14-Fc was measured using the Bio-Rad ProteOn XPR36 essentially as described by Nahshol et al., (2008). Briefly, a GLM ProteOn sensor chip was activated by flowing a mixture of 0.2 M EDC and 0.05 M sulpho-NHS over the chip (150 μl at 30 μl/min for 5 minutes). Rabbit anti-mouse IgG whole molecule (Sigma M-7023) was then coupled to the chip in the vertical orientation by flowing 150 μl of a 50 μg/ml solution in 10 mM acetate buffer (pH 4.5) at 30 μl/min. The remaining coupling sites were then deactivated by flowing 150 μl of 1 M ethanolamine-HCl (pH 8.5) at 30 μl/min. Mouse anti-Fn14 IgG monoclonal antibodies were then bound to the coupled anti-mouse IgG antibody by flowing 150 μl of 100 μg/ml IgG at 25 μl/min over a single channel of the sensor chip in the horizontal direction. […] PBS Tween 20 (0.005%) alone was passed over the remaining channel. Binding sensorgrams were collected and analyzed with the ProteOn Manager 2.1 XPR36 software using the Langmuir or bivalent analyte kinetic models to fit the data and determine the affinity constant KD.
A Bio-Rad ProteOn XPR36 was used to determine the affinity of mouse monoclonal anti-Fn14 antibodies CRCBT-06-001 and CRCBT-06-002 to recombinant Fn14-Fc. It is clear that both antibodies tested display a high on-rate and a low off-rate. The ProteOn software was used to fit a curve to the sensorgram based on a mathematical model, enabling the kinetics of the interaction (ka, Kd and KD) to be calculated. A number of models can be used to fit the curves to the sensorgram, essentially the models used for each sensorgram were used as they provided the best fit, as evident by the low Chi² value obtained for the residuals.

T1 sequence (Q9NP84 28-77): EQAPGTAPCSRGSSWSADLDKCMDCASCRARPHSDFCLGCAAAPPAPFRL
Sequence of phage expressed hFn14 mutant L46A (Q9NP84 28-77 L46A): as the sequence (Q9NP84 28-77) above, with L19A counted along it

B1: CRCBT-06-002 (antibody, IgG1, V domains shown)
VH: EVKLQQSGGGLVQPGGSMKLSCVASGFTFSYYWMNWVRQSPEQGLEWIAEIRLQSNDYPTHYAESVKGRFTISRDDSKNSVYLQMNNLRPEDTGIYYCACRYADYFDHWGQGTTLTVSS
VL: DTVLTQSPASLVVSLGQRATISCRASQSVSTSDYSYIHWYQQKPGQPPKFLIKYASNRDSGVPARFSGSGSGTDFTLNIHPVEEDDTAIYYCQHSWEIPPTFGAGTKLELQR
For the molecule B1, the binding result in experiment [1], in experiment [2] and in experiment [3] was “binds” each time.

B2: CRCBT-06-001 (antibody, IgG2b, V domains shown)
VH: QVQLQQSGGGLVQPGGSMKLSCIASGFTFSSYWMSWVRQSPEKGLEWVAEIRSKSDNYATHYAESVKGKFTISRDDSKSRFFLQMNNLRAEDTGIYYCSSTYADYFHYWGQGTDLTVSS
VL: DIVMTQTPASLAVSLGQRATISCRASQSVSTSTYSYMHWYQQKPGQPPKLLIKYASSLESGVPARFSGSGSGTDFTLNIHPVEEDDTATYYCQHSWEIPYTFGGGTKLEIKR
The Kd is a measure of binding affinity in units of concentration. One may read the koff as a measure of how fast the partners let go of each other. Broadly, the kon is a measure of how fast the partners come together. On to B2, for which, in experiment [1], the binding result is “binds”. The binding result in experiment [2] is recorded as “binds”. In experiment [4], the Kd is 0.768 nM, the koff amounted to 1.81e-05 s⁻¹ and the kon was determined as 23600 M⁻¹ s⁻¹. Moreover, in experiment [3], the binding result is listed as “binds”.
